From the Immune Epitope Database (IEDB) come the findings set out here.

For test [1], the target named is HLA-B*57:01. The test is described as follows: IEDB peptide-MHC binding, purified MHC/direct/fluorescence; filed as Kd, often an IC50 or EC50 that approximates it; ≥ and ≤ were set here for values at or beyond the usual limits of such assays. The settings on record: source organism: Burkholderia mallei ATCC 23344.
In test [2] the target is HLA-B*14:02. The test is described as above. The settings on record: source organism: Burkholderia mallei ATCC 23344.
Test [3] deals with HLA-A*24:03. The description is as above. The settings on record: source organism: Burkholderia mallei ATCC 23344.
The target of test [4] is HLA-B*51:01. The test is described as above. The following applies: source organism: Burkholderia mallei ATCC 23344.
Test [5] concerns the target HLA-B*46:01. Described as above. The following applies: source organism: Burkholderia mallei ATCC 23344.
Test [6] concerns the target HLA-B*39:01. Described as above. The settings on record: source organism: Burkholderia mallei ATCC 23344.
For test [7], the target named is HLA-B*15:01. The description is as above. The following applies: source organism: Burkholderia mallei ATCC 23344.
In test [8] the target is HLA-B*18:01. Described as above. The settings on record: source organism: Burkholderia mallei ATCC 23344.
Test [9] addresses HLA-A*68:02. The description is as above. The following applies: source organism: Burkholderia mallei ATCC 23344.
In test [10] the target is HLA-A*29:02. Described as above. The settings on record: source organism: Burkholderia mallei ATCC 23344.
The target of test [11] is HLA-B*27:03. The test is described as above. The settings on record: source organism: Burkholderia mallei ATCC 23344.
Test [12] addresses HLA-B*45:06. The test is described as follows: IEDB peptide-MHC binding, purified MHC/competitive/fluorescence; filed as Kd, often an IC50 or EC50 that approximates it; ≥ and ≤ were set here for values at or beyond the usual limits of such assays. The settings on record: source organism: Burkholderia mallei SAVP1.
The target in test [13] is HLA-B*15:42. The description is as above. The settings on record: source organism: Burkholderia mallei SAVP1.
The target of test [14] is HLA-B*58:01. Described as above. The following applies: source organism: Burkholderia mallei SAVP1.
Test [15] concerns the target HLA-A*11:01. The test is described as above. The settings on record: source organism: Burkholderia mallei SAVP1.
Test [16] deals with HLA-B*07:02. Described as above. The settings on record: source organism: Burkholderia mallei SAVP1.
The target of test [17] is HLA-A*30:02. Described as above. The settings on record: source organism: Burkholderia mallei SAVP1.
The target in test [18] is HLA-B*40:01. Described as above. The following applies: source organism: Burkholderia mallei SAVP1.
Test [19] concerns the target HLA-A*01:01. Described as above. The settings on record: source organism: Burkholderia mallei SAVP1.
Test [20] addresses HLA-B*44:02. Described as above. The following applies: source organism: Burkholderia mallei SAVP1.
The target in test [21] is HLA-B*08:01. Described as above. The settings on record: source organism: Burkholderia mallei SAVP1.
The target of test [22] is HLA-B*83:01. The test is described as above. The settings on record: source organism: Burkholderia mallei SAVP1.
In test [23] the target is HLA-B*53:01. The description is as above. The settings on record: source organism: Burkholderia mallei SAVP1.

Consider MVFGRFSFA, for which the Kd in [1] was no less than 20 µM; in [2] it was 1.18 µM; in test [3], no less than 20 µM; in test [4], no less than 20 µM; in [5] it was no less than 20 µM; in test [6], no less than 20 µM. Moreover, the Kd is no less than 20 µM in [7]; no less than 20 µM in test [8]; no more than 0.001 µM in [9]; 0.192 µM in test [10]; no less than 20 µM in test [11]; no less than 5 µM in test [12]. Also, the Kd in test [13] was no less than 5 µM; in test [14] it was no less than 5 µM; in test [15], 1.5 µM; in [16], no less than 5 µM; in test [17] it was no less than 20 µM; in test [18], no less than 5 µM. Further, the Kd in [19], in [20], in test [21], in test [22] and in [23] was no less than 5 µM in each case.

As usually defined, the Kd is a measure of binding affinity in units of concentration. Low values mean higher affinity, high ones lower affinity.
